US20200283523A1 (WUXI BIOLOGICS IRELAND, published 2020)

Columns and labels:
[1] = target: T1, human CD3 (human, UniProt P07766 23-207); assay: flow cytometry on Jurkat cells
T1 construct: whole, on cells; On cells CD3 stands as the full CD3/TCR complex; also called CD3 on Jurkat cells

[2] = target: T2, cynomolgus CD19 (cynomolgus monkey, UniProt A0A2K5W8L9 20-557); assay: flow cytometry on CHO-K1 cells expressing cynomolgus CD19 (WBP701.CHO-K1.cpro1.FL.C9)
T2 construct: whole, on cells; also called monkey CD19; WBP701.CHO-K1.cpro1.FL.C9 cells
T2 sequence: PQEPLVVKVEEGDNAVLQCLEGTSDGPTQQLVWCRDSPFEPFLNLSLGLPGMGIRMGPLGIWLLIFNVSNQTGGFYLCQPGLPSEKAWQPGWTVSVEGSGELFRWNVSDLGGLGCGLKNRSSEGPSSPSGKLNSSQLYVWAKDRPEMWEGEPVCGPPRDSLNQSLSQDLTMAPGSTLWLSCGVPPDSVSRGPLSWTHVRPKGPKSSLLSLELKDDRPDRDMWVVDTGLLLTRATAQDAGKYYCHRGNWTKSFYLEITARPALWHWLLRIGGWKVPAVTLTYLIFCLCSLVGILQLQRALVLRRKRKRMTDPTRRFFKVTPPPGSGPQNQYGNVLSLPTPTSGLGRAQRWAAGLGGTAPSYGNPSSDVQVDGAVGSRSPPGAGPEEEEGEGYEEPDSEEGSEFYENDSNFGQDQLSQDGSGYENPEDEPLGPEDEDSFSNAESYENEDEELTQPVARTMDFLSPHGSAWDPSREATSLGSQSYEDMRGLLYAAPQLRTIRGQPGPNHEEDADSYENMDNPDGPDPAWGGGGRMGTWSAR
Experimental: Binding of the CD3×CD19 bispecific antibody to cynomoglus CD19 target protein expressed on CHOK1 cells was determined by flow cytometry analysis. In brief, cynomoglus CD19 over-expressed stable cell line (WBP701.CHOK1.cPro1.C9, WuXi Biologics) were harvested with trypsin and diluted to 1×10⁶ cells/ml in 1% BSA/1×PBS. 1×10⁵ cells/well (100 ul) were added to each well of a 96-well U-plate (Corning, #3799) and centrifuged at 1500 rpm (Eppendorf, #5810R) for 5 minutes before removing the supernatant. Antibodies serially diluted in 1% BSA/1×PBS were added at 100 µl/well to the pelleted cells and incubated at 4° C. for 1 hour. A non-related hIgG4 antibody was used as an isotype control. […] Pelleted cells were resuspended in 100 ul/well Fluorescence-labeled anti-human IgG Fc antibody (Jackson, #109-115-098) 1:150 diluted in 1% BSA/1×PBS for 30 minutes at 4° C. in the dark. […] After the final wash, cells were resuspended in 80 ul 1% BSA/1×PBS and fluorescence values were measured with a FACS Canto II cytometer (BD Biosciences). The amount of cell surface bound anti-CD19&CD3 bispecific antibody was assessed by measuring the mean fluorescence (MFI). The FACS raw data were analyzed by FlowJo software, wells containing no antibody or secondary antibody only were used to establish background fluorescence. […]

T1 sequence (P07766 23-207): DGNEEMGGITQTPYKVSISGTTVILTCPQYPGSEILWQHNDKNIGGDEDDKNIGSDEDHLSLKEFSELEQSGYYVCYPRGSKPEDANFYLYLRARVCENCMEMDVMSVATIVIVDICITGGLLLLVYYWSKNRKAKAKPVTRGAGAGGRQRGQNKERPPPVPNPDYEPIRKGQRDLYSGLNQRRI

EC50 [1]: 0.047 µM | EC50 [2]: 0.026 µM
B1: W3438-T3U4.E17-1.uIgG4.SP (bispecific antibody)
light 1: DIVMTQSPDSLAVSLGERATINCKSSQSLLNSRTRKNYLAWYQQKPGQPPKLLIYWASTRQSGVPDRFSGSGSGTDFTLTISSLQAEDVAVYYCTQSHTLRTFGGGTKVEIKPDIQNPDPAVYQLRDSKSSDKSVCLFTDFDSQTQVSQSKDSDVYITDKCVLDMRSMDFKSNSAVAWSQKSDFACANAFQNSIIPEDTFFPSPESS
heavy 1: QVQLVQSGAEVKKPGSSVKVSCKASGFAFTDYYIHWVRQAPGQGLEWMGWISPGNVNTKYNENFKGRVTITADKSTSTAYMELSSLRSEDTAVYYCARDGYSLYYFDYWGQGTLVTVLEDLKNVFPPEVAVFEPSEAEISHTQKATLVCLATGFYPDHVELSWWVNGKEVHSGVCTDPQPLKEQPALQDSRYALSSRLRVSATFWQNPRNHFRCQVQFYGLSENDEWTQDRAKPVTQIVSAEAWGRYGPPCPPCPAPEFLGGPSVFLFPPKPKDTLMISRTPEVTCVVVDVSQEDPEVQFNWYVDGVEVHNAKTKPREEQFNSTYRVVSVLTVLHQDWLNGKEYKCKVSNKGLPSSIEKTISKAKGQPREPQVYTLPPCQEEMTKNQVSLWCLVKGFYPSDIAVEWESNGQPENNYKTTPPVLDSDGSFFLYSRLTVDKSRWQEGNVFSCSVMHEALHNHYTQKSLSLSLGK
light 2: DIQLTQSPSFLSASVGDRVTITCSASSTVNYMHWYQQKPGKAPKLLIYSTSNLASGVPSRFSGSGSGTEFTLTISSLQPEDFATYYCHQWSSYPYTFGQGTKLEIKRTVAAPSVFIFPPSDEQLKSGTASVVCLLNNFYPREAKVQWKVDNALQSGNSQESVTEQDSKDSTYSLSSTLTLSKADYEKHKVYACEVTHQGLSSPVTKSFNRGEC
heavy 2: QMQLVQSGPEVKKPGTSVKVSCKASGYAFTSYNMYWVRQARGQRLEWIGYIDPYNGDTTYNQKFKGRVTITRDMSTSTAYMELSSLRSEDTAVYYCLTTAYAMDYWGQGTLVTVSSASTKGPSVFPLAPCSRSTSESTAALGCLVKDYFPEPVTVSWNSGALTSGVHTFPAVLQSSGLYSLSSVVTVPSSSLGTKTYTCNVDHKPSNTKVDKRVESKYGPPCPPCPAPEFLGGPSVFLFPPKPKDTLMISRTPEVTCVVVDVSQEDPEVQFNWYVDGVEVHNAKTKPREEQFNSTYRVVSVLTVLHQDWLNGKEYKCKVSNKGLPSSIEKTISKAKGQPREPQVCTLPPSQEEMTKNQVSLSCAVKGFYPSDIAVEWESNGQPENNYKTTPPVLDSDGSFFLVSRLTVDKSRWQEGNVFSCSVMHEALHNHYTQKSLSLSLGK
notes: Bispecific, bivalent: one anti-CD3 arm with TCR constant domains and one native anti-CD19 Fab arm, IgG4 S228P Fc with knobs-into-holes; also called WBP3438; CD3×CD19 bispecific antibody; copies: 1 + 1 + 1 + 1
